Measured values taken from patent US20120208753A1 (published 2012).

Target: the molecule itself
Assay: non-reducing PAGE of protein isolated from CHO cells

B1: active domain of GDF-6 fused to a FLAG tag (SEQ ID NO: 25) (ligand)
chain: MDYKDDDDKENLYFQGTAFASRHGKRHGKKSRLRCSKKPLHVNFKELGWDDWIIAPLEYEAYHCEGVCDFPLRSHLEPTNHAIIQTLMNSMDPGSTPPSCCVPTKLTPISILYIDAGNNVVYKQYEDMVVESCGCR
notes: It was secreted by CHO cells; the Western blot was run under reducing conditions; also called active fragment of GDF-6; active fragment
B1: binds.
